From patent US6559282B1, “Artificial T helper cell epitopes as immune stimulators for synthetic peptide immunogens including immunogenic LHRH peptides” (United Biomedical, Inc., priority 1998, dated 2003) come the findings set out here.

The target of one test is T1, LHRH (Rattus norvegicus, UniProt P07490).
T1 construct: from tissue; host or cells: living male rats (in vivo, endogenous hormone)
As to the kind of experiment: Serum testosterone RIA in rats immunized with LHRH peptide immunogens (immunocastration). The class given is in vivo, Sprague-Dawley rats, male. As to conditions: i.m., serum at weeks 10 or 12. The protocol: B. Protocols for immunization. The LHRH peptide immunogens shown in Tables 2a and 2b were evaluated on groups of 5 to 10 rats as specified by the experimental immunization protocol outlined below and by serological assays for determination of immunogenicity on serum samples:
Blood was collected and processed into serum, and stored prior to ELISA and radioimunoassay (RIA) for determination of serum testosterone values.
D. Determination of immunogen efficacy. Immunogens were evaluated for efficacy by RIA for serum testosterone values. Serum testosterone levels were measured using an RIA kit from Diagnostic Products (Los Angeles, Calif.) according to manufacturer's instructions. The lower detection limit for testosterone ranged from 0.01 to 0.03 nmol/L. Each sample was analyzed in duplicate. Serum samples were scored as being at castration level when the testosterone level was below limits of detection and as “near castration” at <0.1 nmol/L. Results were verified by comparison to testosterone levels in serum from mechanically castrated rats.
E. Results. […] The efficacy of the anti-peptide antibody responses, consequential to the cross-reactivity to natural LHRH, was established by determining serum testosterone levels. Those results are summarized in the right columns of Tables 2a and 2b as numbers of animals having castration level serum testosterone per total animals in the group.

For test [1], the system named is LHRH peptide (SEQ ID NO:77). The test can be described thus: ELISA of immune rat sera on LHRH peptide-coated plates (immunogenicity). The class given is in vivo, Sprague-Dawley rats, male. As to conditions: 25 μg doses on Alum at 0 and 3 weeks; ELISA peptide SEQ ID NO: 28. The protocol: C. Method for determination of immunogenicity. Antibody activities were determined by ELISA (enzyme-linked immunosorbent assays) using 96-well flat bottom microtiter plates which were coated with the LHRH peptide (SEQ ID NO:77) as immunosorbent. Aliquots (100 μL) of the peptide immunogen solution at a concentration of 5 μg/mL were incubated for 1 hour at 37° C. The plates were blocked by another incubation at 37° C. for 1 hour with a 3% gelatin/PBS solution. The blocked plates were then dried and used for the assay. Aliquots (100 μL) of the test immune sera, starting with a 1:100 dilution in a sample dilution buffer and ten-fold serial dilutions thereafter, were added to the peptide coated plates. The plates were incubated for 1 hour at 37° C.
The plates were washed six times with 0.05% Tween® in PBS. 100 μL of horseradish peroxidase labeled goat-anti-rat IgG antibody was added at appropriate dilutions in conjugate dilution buffer (Phosphate buffer containing,0.5M NaCl, and normal goat serum). The plates were incubated for 1 hour at 37° C. before being washed as above. Aliquots (100 μL) of o-phenylenediamine substrate solution were then added. […] The A492 nm of the contents of each well was read in a plate reader. ELISA titers were calculated based on linear regression analysis of the absorbances, with cutoff A492 nm set at 0.5. […]

The next test relates to artificial Th epitope. The test can be described thus: ELISA of immune rat sera on the Th epitope peptide (antibody specificity). The class given is in vivo, rats. As to conditions: 25 μg doses on Alum at 0 and 3 weeks; sera diluted 1:100; ELISA on respective Th peptide. In general terms: In an ELISA, binding on a coated surface is turned into a signal by an enzyme label.

Marks after values point to notes of the source that are not given here.

For the substance 29 (KKKFFFFTKFFTFPVSFD) [compound 29], the “no. castrated (animals having castration level serum testosterone per total animals in the group)” value is given as 5/5 with LHRH (400 μg/dose, Alum (0,3,6 wpi)) and 8/10 with LHRH (400 μg/dose, IFA (0,3,6 wpi)). The matching figures for 30 (KKKLFLLTKLLTLPFSLD) [compound 30]: 2/5 and 9/10.

Take 32 (KKKIITITRIITIITTI) [compound 32]: the “no. castrated (animals having castration level serum testosterone per total animals in the group)” value with LHRH (25 μg/dose, Alum (0,3 wpi)) is on record as 1/6. With 33 (KKKMMTMTRMITMITTID) [compound 33], the “no. castrated (animals having castration level serum testosterone per total animals in the group)” value in the test with LHRH (25 μg/dose, Alum (0,3 wpi)) is given as 5/5. Consider 34 (FITMDTKFLLASTHIL) [compound 34], for which the “no. castrated (animals having castration level serum testosterone per total animals in the group)” value with LHRH (25 μg/dose, Alum (0,3 wpi)) was 1/8; with LHRH (100 μg/dose, IFA (0,3,6 wpi)), 4/6. As for 35 (KKKFITMDTKFLLASTHIL) [compound 35], the “no. castrated (animals having castration level serum testosterone per total animals in the group)” value with LHRH (25 μg/dose, Alum (0,3 wpi)) was 2/6.

With “37 (DLSDLKGLLLHKLDGLGGEHWSYGLRPG) [compound 37]”, the “no. castrated (animals having castration level serum testosterone per total animals in the group)” value with LHRH (25 μg/dose, Alum (0,3 wpi)) is on record as 0/6. Still for that read-out and setting: for “38 (EISEIRGIIIHRIEGIGGEHWSYGLRPG) [compound 38]” the value was 5/6; for “39 (DVSDVKGVVVHKVDGVGGEHWSYGLRPG) [compound 39]”, 3/6; for “40 (DFSDFKGFFFHKFDGFGGEHWSYGLRPG) [compound 40]”, 4/8. With “41 (ISEIKGVIVHKIEGIGGEHWSYGLRPG) [compound 41]”, the “no. castrated (animals having castration level serum testosterone per total animals in the group)” value with LHRH (25 μg/dose, Alum (0,3 wpi)) is 6/6. For the same substance, the “LHRH Reactivity: number of animals with anti-LHRH titers >1:1000/total animals immunized” value in test [1] is reported as 6/6. Further, in the test with artificial Th epitope, the “Th Reactivity: number of animals with anti-Th reactivity >0.100 A490/total animals immunized” value is recorded as 0/6^c.

Take “42 (MTEIRTVIVTRMETMGGEHWSYGLRPG) [compound 42]”: in the test with LHRH (25 μg/dose, Alum (0,3 wpi)), the “no. castrated (animals having castration level serum testosterone per total animals in the group)” value is on record as 6/6.

With “43 (LSEIKGVIVHKLEGVGGEHWSYGLRPG) [compound 43]”, the “no. castrated (animals having castration level serum testosterone per total animals in the group)” value with LHRH (25 μg/dose, Alum (0,3 wpi)) is 14/14; in the test with LHRH (100 μg/dose, IFA (0,3,6 wpi)), 6/6.

As for “47 (MSEIKGVIVHKLEGMGGEHWSYGLRPG) [compound 47]”, the “no. castrated (animals having castration level serum testosterone per total animals in the group)” value with LHRH (25 μg/dose, Alum (0,3 wpi)) is 2/6. Still for that read-out and setting: for “48 (LTEMRTVIVTRMETVGGEHWSYGLRPG) [compound 48]” the value was 1/6; for “54 (ISMTEIRTVIVTRMETMLFGGEHWSYGLRPG) [compound 54]”, 0/8.
